B1: mAb mIhfB4NTHI Fab (murine, clone 12E6.F8.D12.D5) (Fab, V domains shown)
VH: EVQLQESGAELVRSGASVKLSCTASGFNIKDYYMHWVKQRPEQGLEWIGWIDPENDDTEYVPKFQGKASMTADTSSNTAYLQLSSLTSEDTAVYYCTELGAYWGQGTLV
VL: not shown
B2: mAb mIhfB4NTHI (murine monoclonal IgG, clone 12E6.F8.D12.D5) (antibody, V domains shown)
VH: EVQLQESGAELVRSGASVKLSCTASGFNIKDYYMHWVKQRPEQGLEWIGWIDPENDDTEYVPKFQGKASMTADTSSNTAYLQLSSLTSEDTAVYYCTELGAYWGQGTLV
VL: not shown

Target: DNABII protein tips
Assay: cell-based or functional assay

Binder | Reduction in Biomass (in vitro vs NTHI biofilms, 171 nM, COMSTAT2, relative to nonspecific murine IgG1) [%] | reduction in biomass of NTHI 86-028NP biofilm in vitro, relative to mAb IgG1 Fab control [%]
B1 | 77 | 74
B2 | 71 | –
